This note sets out measurements from PMC6262109.

What all share (experiment): EMSA
Data set [1] deals with T1, FLAG-Dmp1 (Dmp1alpha);p53 (mouse?;, UniProt Q8CE22;P04637 1-761;1-393, |).
Data set [2] addresses p53 (UniProt P04637 1-393).
In data set [3] the target is T1, FLAG-Dmp1 (Dmp1alpha);p53. The source holds these as a separate data set.
Data set [4] addresses T2, FLAG-Dmp1 (Dmp1alpha) (UniProt Q8CE22 1-761).
T2 sequence: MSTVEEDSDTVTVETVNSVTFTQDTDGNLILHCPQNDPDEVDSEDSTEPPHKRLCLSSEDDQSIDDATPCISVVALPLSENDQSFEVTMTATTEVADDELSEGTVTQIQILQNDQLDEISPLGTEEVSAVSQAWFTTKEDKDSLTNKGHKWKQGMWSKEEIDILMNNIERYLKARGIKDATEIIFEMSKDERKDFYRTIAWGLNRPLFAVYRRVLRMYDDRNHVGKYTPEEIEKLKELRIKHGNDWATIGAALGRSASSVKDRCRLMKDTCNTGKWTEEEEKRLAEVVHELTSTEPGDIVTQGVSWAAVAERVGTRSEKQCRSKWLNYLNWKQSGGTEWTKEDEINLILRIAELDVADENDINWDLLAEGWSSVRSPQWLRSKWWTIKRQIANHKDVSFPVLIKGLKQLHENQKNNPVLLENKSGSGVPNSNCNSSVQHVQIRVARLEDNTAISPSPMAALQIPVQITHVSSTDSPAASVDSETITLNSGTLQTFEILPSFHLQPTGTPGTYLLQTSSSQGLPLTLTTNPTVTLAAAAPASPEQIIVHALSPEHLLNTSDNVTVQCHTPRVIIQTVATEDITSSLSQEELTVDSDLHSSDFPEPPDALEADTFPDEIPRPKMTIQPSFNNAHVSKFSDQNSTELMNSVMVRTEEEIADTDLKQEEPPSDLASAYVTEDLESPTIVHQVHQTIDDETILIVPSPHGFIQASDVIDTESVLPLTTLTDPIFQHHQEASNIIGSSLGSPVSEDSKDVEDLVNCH

Read-outs that look alike come from different tables or passages of the source.

B1: p53-g general p53 consensus (dsDNA)
DNA 1: AGGCATGCCTAGGCATGCCT
DNA 2: AGGCATGCCTAGGCATGCCT
B1 returned a binding signal in data set [1] of 6 fold vs p53 alone.

B2: mouse p21Cip1 p53 consensus #2 (dsDNA)
DNA 1: AGACTGGGCATGTCTGGGCA
DNA 2: TGCCCAGACATGCCCAGTCT
Regarding B2, in data set [2], the binding result is “binds”. The molecule also displayed a binding signal in data set [3] of 3 fold vs p53+BSA.

B3: mouse Arf promoter Dmp1 site (dsDNA)
DNA 1: TACCTCGTGGGGCGGATGCACAGAAGCAC
DNA 2: GTGCTTCTGTGCATCCGCCCCACGAGGTA
On to B3, for which the binding result in data set [4] is recorded as “binds”.
